For 56 molecules, Kd results are on record in paper PMC9352680, “A comprehensive thermodynamic model for RNA binding by the Saccharomyces cerevisiae Pumilio protein PUF4”.

Changes are numbered by the printed parent chain. Numbers in names are those of the source.

T1: PUF4 RNA-binding domain (Saccharomyces cerevisiae, UniProt P25339 537-888)
T1 sequence: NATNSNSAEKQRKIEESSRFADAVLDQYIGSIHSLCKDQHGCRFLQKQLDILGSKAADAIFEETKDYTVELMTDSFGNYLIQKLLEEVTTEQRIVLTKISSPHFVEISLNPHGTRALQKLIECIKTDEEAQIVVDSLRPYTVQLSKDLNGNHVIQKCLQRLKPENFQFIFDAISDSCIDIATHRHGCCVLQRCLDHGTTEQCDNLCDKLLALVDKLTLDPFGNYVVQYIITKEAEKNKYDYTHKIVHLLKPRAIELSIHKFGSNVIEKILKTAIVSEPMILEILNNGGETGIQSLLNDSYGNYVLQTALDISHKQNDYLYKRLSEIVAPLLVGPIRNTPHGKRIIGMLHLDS

B1: Ia_S2_P3E.1_K3.1_C3.1_H3.1_[T1C]_A3.1_F3.1_T3.1 (ssRNA)
RNA: UUUGAUUAAUAUGAUAUCGUUCUUUCUCGUAUAUAUUCUUUCUCGAUAUCAUAUUAAUCUUU
B2: Ic_S2_P3E.1_K3.1_C3.1_H3.1_A3.1_F3.1_[T7A]_[A8C]_T3.1 (ssRNA)
RNA: B1 RNA with C28U, U34A, A35C
B3: Ic_S2_P3E.1_K3.1_C3.1_H3.1_A3.1_F3.1_[T7A]_[A8T]_T3.1 (ssRNA)
RNA: B1 RNA with C28U, U34A, A35U
B4: Ib_S2_P3E.1_K3.1_C3.1_H3.1_[T1C]_A3.1_F3.1_[T7C]_T3.1 (ssRNA)
RNA: B1 RNA with U34C
B5: Ib_S2_P3E.1_K3.1_C3.1_H3.1_A3.1_F3.1_[T7C]_[A8T]_T3.1 (ssRNA)
RNA: B1 RNA with C28U, U34C, A35U
B6: Ic_S2_P3E.1_K3.1_C3.1_H3.1_A3.1_F3.1_[T7C]_[A8C]_T3.1 (ssRNA)
RNA: B1 RNA with C28U, U34C, A35C

The target of this data set is T1, PUF4 RNA-binding domain. Description: Mg; RNA-MaP; 20 mM Na-HEPES pH 7.4, 30 mM KOAc, 0.75 mM MgCl2, 0.1% Tween-20, 5% glycerol, 0.1 mg/mL BSA, 2 mM DTT; 25 C; 0.0125-409.6 nM protein. The settings on record: tags: N-His6-TEV cleaved; C-SNAP kept, Cy3B-labelled; label: tethered on chip by stalled RNA polymerase.
As a reminder, the Kd is the equilibrium constant for the complex coming apart. High values mean weaker binding, low ones tighter binding. As to UCUCUUUGUAUCCUCUAUUAUCUCUU (ssRNA) [Ie_S1_P5E.1_K5.1_C5.1_H5.1_A5.1_[+5CCTC]_F5.1_T5.1], the dissociation constant Kd was found to be 23.9 nM.

UCUCUUUGUAUCCCAUUAUCUCUU (ssRNA) [Ie_S1_P4E.1_K4.1_C4.1_H4.1_A4.1_[+5CCC]_F4.1_T4.1]: the Kd was determined as 76.1 nM. The value for UCUCUUUGUAUCCCUUAUUAUCUCUU (ssRNA) [Ie_S1_P4E.1_K4.1_C4.1_H4.1_A4.1_[+5CCCTT]_F4.1_T4.1] was 41 nM; that for UCUCUUUGUAUAUCUCUCUAUCUCUU (ssRNA) [Ie_S1_P4E.1_K4.1_C4.1_H4.1_A4.1_[+7CTCTC]_F4.1_T4.1] was 15.9 nM; that for UCUCUUUGUAUUCUCAUUAUCUCUU (ssRNA) [Ie_S1_P5E.1_K5.1_C5.1_H5.1_A5.1_[+6CTC]_F5.1_T5.1] was 33.8 nM.

UCUCUUUGUAUACUCUCUUAUCUCUU (ssRNA) [Ie_S1_P4E.1_K4.1_C4.1_H4.1_A4.1_[+6CTCTC]_F4.1_T4.1]: the Kd was 10.9 nM.

On to UCUCUUUGUAUCUCUUAUUAUCUCUU (ssRNA) [Ie_S1_P5E.1_K5.1_C5.1_H5.1_[+4TCTC]_A5.1_F5.1_T5.1], for which the Kd worked out at 21.8 nM. The value for UCUCUUUGUAUAUUUCAUCUCUU (ssRNA) [Ie_S1_P4E.1_K4.1_C4.1_H4.1_A4.1_F4.1_[+8TC]_T4.1] was 5.5 nM; that for UCUCUUUGUACCCUUAUUAUCUCUU (ssRNA) [Ie_S1_P4E.1_K4.1_C4.1_H4.1_[+4CCCT]_A4.1_F4.1_T4.1] was 6.31 nM. Then UCUCUUUGUAUACCCUUAUCUCUU (ssRNA) [Ie_S1_P4E.1_K4.1_C4.1_H4.1_A4.1_[+6CCC]_F4.1_T4.1], with 35.3 nM; and UCUCUUUGUAUAUUCUUAUCUCUU (ssRNA) [Ie_S1_P4E.1_K4.1_C4.1_H4.1_A4.1_[+6TTC]_F4.1_T4.1], with 6.67 nM. UCUCUUUGUAUAUCCUAUCUCUU (ssRNA) [Ie_S1_P4E.1_K4.1_C4.1_H4.1_A4.1_[+7CC]_F4.1_T4.1] came in with a Kd of 14.2 nM.

Regarding UCUCUUUGUAUCCCUAUUAUCUCUU (ssRNA) [Ie_S1_P5E.1_K5.1_C5.1_H5.1_A5.1_[+5CCC]_F5.1_T5.1], the dissociation constant (Kd) is 20 nM. Then UCUCUUUGUAUAUCUCUUAUCUCUU (ssRNA) [Ie_S1_P4E.1_K4.1_C4.1_H4.1_A4.1_[+6TCTC]_F4.1_T4.1], with 24.4 nM; and UCUCUUUGUAUAUUCCUAUCUCUU (ssRNA) [Ie_S1_P4E.1_K4.1_C4.1_H4.1_A4.1_F4.1_[+8CCT]_T4.1], with 8.2 nM. The molecule UCUCUUUGUAUAUCCCUUAUCUCUU (ssRNA) [Ie_S1_P4E.1_K4.1_C4.1_H4.1_A4.1_[+7CCCT]_F4.1_T4.1] had a Kd of 23.4 nM. Then B1, with 136 nM; and B2, with 27.7 nM. The value for B3 was 6.77 nM; that for B4 was 649 nM.

As to B5, binding was characterised by a dissociation constant (Kd) of 3.86 nM. For the molecule B6, the Kd turned out to be 21.1 nM.

Take UCUCUUUGUAUAUCCCUAUCUCUU (ssRNA) [Ie_S1_P4E.1_K4.1_C4.1_H4.1_A4.1_[+7CCC]_F4.1_T4.1]: the equilibrium dissociation constant (Kd) is 31.9 nM. The value for UCUCUUUGUAUAUUUUUAUCUCUU (ssRNA) [Ie_S1_P4E.1_K4.1_C4.1_H4.1_A4.1_[+7TTT]_F4.1_T4.1] was 5.93 nM; that for UCUCUUUGUAUAUCUUAUCUCUU (ssRNA) [Ie_S1_P4E.1_K4.1_C4.1_H4.1_A4.1_[+7CT]_F4.1_T4.1] was 6.9 nM; that for UCUCUUUGUAUAUUCUCUAUCUCUU (ssRNA) [Ie_S1_P4E.1_K4.1_C4.1_H4.1_A4.1_F4.1_[+8CTCT]_T4.1] was 7.11 nM.

Molecule UCUCUUUGUAUACUUUUAUCUCUU (ssRNA) [Ie_S1_P4E.1_K4.1_C4.1_H4.1_A4.1_[+6CTT]_F4.1_T4.1] had a Kd of 6.8 nM.

Consider UCUCUUUGUAUAUUCUAUCUCUU (ssRNA) [Ie_S1_P4E.1_K4.1_C4.1_H4.1_A4.1_F4.1_[+8CT]_T4.1], for which the affinity, expressed as Kd, was 5.4 nM. For the molecule UCUCUUUGUAUAUUUCCUAUCUCUU (ssRNA) [Ie_S1_P4E.1_K4.1_C4.1_H4.1_A4.1_[+7TTCC]_F4.1_T4.1], the Kd stood at 6.97 nM. Then UCUCUUUGUAUUCUCUAUUAUCUCUU (ssRNA) [Ie_S1_P5E.1_K5.1_C5.1_H5.1_A5.1_[+5TCTC]_F5.1_T5.1], with 22.9 nM; and UCUCUUUGUAUAUCCUCUAUCUCUU (ssRNA) [Ie_S1_P4E.1_K4.1_C4.1_H4.1_A4.1_[+7CCTC]_F4.1_T4.1], with 25.3 nM; and UCUCUUUGUAUACCUCUUUAUCUCUU (ssRNA) [Ie_S1_P4E.1_K4.1_C4.1_H4.1_A4.1_[+6CCTCT]_F4.1_T4.1], with 27.5 nM. Then UCUCUUUGUAUUUCAUUAUCUCUU (ssRNA) [Ie_S1_P4E.1_K4.1_C4.1_H4.1_A4.1_[+5TTC]_F4.1_T4.1], with 39.7 nM; and UCUCUUUGUAUUCCUAUUAUCUCUU (ssRNA) [Ie_S1_P5E.1_K5.1_C5.1_H5.1_A5.1_[+5TCC]_F5.1_T5.1], with 10.3 nM.

The molecule UCUCUUUGUAUACCUCUUAUCUCUU (ssRNA) [Ie_S1_P4E.1_K4.1_C4.1_H4.1_A4.1_[+6CCTC]_F4.1_T4.1] returned a Kd of 41.5 nM. The value for UCUCUUUGUAUCCUCAUUAUCUCUU (ssRNA) [Ie_S1_P4E.1_K4.1_C4.1_H4.1_A4.1_[+5CCTC]_F4.1_T4.1] was 38.3 nM; that for UCUCUUUGUAUUUCCAUUAUCUCUU (ssRNA) [Ie_S1_P4E.1_K4.1_C4.1_H4.1_A4.1_[+5TTCC]_F4.1_T4.1] was 96.6 nM; that for UCUCUUUGUAUAUCCUUAUCUCUU (ssRNA) [Ie_S1_P4E.1_K4.1_C4.1_H4.1_A4.1_[+7CCT]_F4.1_T4.1] was 16.4 nM. The molecule UCUCUUUGUAUUCCAUUAUCUCUU (ssRNA) [Ie_S1_P4E.1_K4.1_C4.1_H4.1_A4.1_[+5TCC]_F4.1_T4.1] displayed a Kd of 62 nM. The value for UCUCUUUGUAUACCUUAUCUCUU (ssRNA) [Ie_S1_P4E.1_K4.1_C4.1_H4.1_A4.1_[+6CC]_F4.1_T4.1] was 8.34 nM; that for UCUCUUUGUAUCUCUAUUAUCUCUU (ssRNA) [Ie_S1_P5E.1_K5.1_C5.1_H5.1_A5.1_[+5CTC]_F5.1_T5.1] was 13.2 nM. For UCUCUUUGUAUAUUUUAUCUCUU (ssRNA) [Ie_S1_P4E.1_K4.1_C4.1_H4.1_A4.1_[+7TT]_F4.1_T4.1], the equilibrium dissociation constant (Kd) came out at 4.6 nM. UCUCUUUGUAUAUCUUUAUCUCUU (ssRNA) [Ie_S1_P4E.1_K4.1_C4.1_H4.1_A4.1_[+6TCT]_F4.1_T4.1] came in with a Kd of 13.9 nM.

As for UCUCUUUGUACCUCUAUUAUCUCUU (ssRNA) [Ie_S1_P4E.1_K4.1_C4.1_H4.1_[+4CCTC]_A4.1_F4.1_T4.1], the Kd stood at 12.7 nM. For the molecule UCUCUUUGUAUAUCUCUUUAUCUCUU (ssRNA) [Ie_S1_P4E.1_K4.1_C4.1_H4.1_A4.1_[+6TCTCT]_F4.1_T4.1], the dissociation constant (Kd) was determined as 14.7 nM.

With UCUCUUUGUACCUCUUAUUAUCUCUU (ssRNA) [Ie_S1_P4E.1_K4.1_C4.1_H4.1_[+4CCTCT]_A4.1_F4.1_T4.1], the affinity, expressed as Kd, was 27.7 nM. Then UCUCUUUGUAUUUCCUAUUAUCUCUU (ssRNA) [Ie_S1_P5E.1_K5.1_C5.1_H5.1_A5.1_[+5TTCC]_F5.1_T5.1], with 15.9 nM.

For the molecule UCUCUUUGUAUAUUUCCUUAUCUCUU (ssRNA) [Ie_S1_P4E.1_K4.1_C4.1_H4.1_A4.1_[+7TTCCT]_F4.1_T4.1], the equilibrium dissociation constant (Kd) was 3.91 nM. Then UCUCUUUGUAUCUCAUUAUCUCUU (ssRNA) [Ie_S1_P4E.1_K4.1_C4.1_H4.1_A4.1_[+5CTC]_F4.1_T4.1], with 37.1 nM. On to UCUCUUUGUAUUCCUUAUUAUCUCUU (ssRNA) [Ie_S1_P4E.1_K4.1_C4.1_H4.1_[+4TTCCT]_A4.1_F4.1_T4.1], for which the Kd was determined as 19 nM.

UCUCUUUGUAUAUCCUCUUAUCUCUU (ssRNA) [Ie_S1_P4E.1_K4.1_C4.1_H4.1_A4.1_[+7CCTCT]_F4.1_T4.1] registered a Kd of 31.7 nM. Consider UCUCUUUGUAUAUUUCUAUCUCUU (ssRNA) [Ie_S1_P4E.1_K4.1_C4.1_H4.1_A4.1_[+7TTC]_F4.1_T4.1], for which the dissociation constant Kd worked out at 5.38 nM. The value for UCUCUUUGUAUACUCUUUAUCUCUU (ssRNA) [Ie_S1_P4E.1_K4.1_C4.1_H4.1_A4.1_[+6CTCT]_F4.1_T4.1] was 12.6 nM; that for UCUCUUUGUAUACUCUUAUCUCUU (ssRNA) [Ie_S1_P4E.1_K4.1_C4.1_H4.1_A4.1_[+6CTC]_F4.1_T4.1] was 8.94 nM; that for UCUCUUUGUACCCUUUAUUAUCUCUU (ssRNA) [Ie_S1_P5E.1_K5.1_C5.1_H5.1_[+4CCCT]_A5.1_F5.1_T5.1] was 17.8 nM.

UCUCUUUGUAUACCCUUUAUCUCUU (ssRNA) [Ie_S1_P4E.1_K4.1_C4.1_H4.1_A4.1_[+6CCCT]_F4.1_T4.1] had an equilibrium dissociation constant (Kd) of 48.6 nM.
